This note sets out measurements from the domain aggregation screens of Martell et al. (2025).
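Note: 20 min heating vs room temperature control held 20 min.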

A short description of this data set: soluble fraction after stress (log2 fold change); higher = more stays soluble; pooled small domains, quantitative proteomics. The following applies: stress: 75 degC.
On to “HMIVPPAIPFRALGIFGPRDRPIVTFEDGPRLINAREGDVLDGRFILRRVGRESVDFAFVGLPPEITRRIP”, for which the “soluble fraction (log2)” value was -0.571.

As to “HMIVSEYIIIGGDKKEYGPVSMGEVGEWVQGGRANGDSKIKKVGTEEWGRLRDFPEFSAYLS”, the “soluble fraction (log2)” value was 0.121. The value for “HMIVVMARETSTDDLEAIRERIESRGMVAQINLGVERTVIGVMGSIPPDFKDEMELMNGVVEVVMISK” was -2.56.

For the sequence “HMIVVMKTSASERDLQEVIARIEQFGFATRSIVGSERATVSVLGAPLPDSLQEALERMPGVEEVVRITK”, the “soluble fraction (log2)” value was -1.48.

Turning to “HMIYAEDFVGRQGTANTILRPSGRIEIEGEVYDAYTRGEYVEAGERVVVISQEGSTLKVRVV”, the “soluble fraction (log2)” value was -0.611. Regarding “HMIYQEGMQVKYQGKEYVISEIQDYKTYKTIKLDDNEGYLNGFITGSEILSFRNESELDLEI”, the “soluble fraction (log2)” value is -0.208.

With “HMIYSKSDLELFGIKKIDVMEENILMLILSEYELDQTPKNILIDEAVRLSKKFGADNAYKFVNATLDTLL”, the “soluble fraction (log2)” value is -1.15. The figure for “HMKAETILAIPENQPERLFPNNEDEARKIYRDLAREWHTDRNKSPKAQDVFSHLSKLYDIVIDRIKNKTWT” is 0.194; for “HMKAGRNTLARQMAILEVLQKDGRALVDDLAARFETTPQTIRKDLSALAEVNQISRFHGGAALVG” it is -0.159; for “HMKAKTYTVQYIDEGKIIKEEELEEGSIINAPEVTKEGHTFIGWYEGEEKYDVYEPITRNLILESKNEIN” it is -0.176. The value for “HMKALEGMRTVFTLADLATEPVTVEITVLEAFKYTTTLEIVQRPVLREWMTNPSMLIRVYHDASTAE” was 0.0452; that for “HMKAMIIVMKPGADMATISKVLKTIETNGFKPHLSKGEETTVIGVIGDERKLNPDIFSTLEGVERIVPVA” was 0.251; that for “HMKASTRELLDFVLSQRGVSTASVAKALGISVQNASTRLKKLSNEGLIIRSEASSLTGGIEFLYS” was -0.822. The value for “HMKDASEFLGAKGKTITPLRPTGAAVINGEKVDVLAEGEFIPKNAEIVVIKVEGSKIIVRNANN” was -0.061; that for “HMKDDLTWSEGLMPNVVGMGLRDAMFMLENSGLRVNYSGRGKVTRQSPQPGVRIKRGATVAIELRL” was -1.89.

With “HMKDEHYLYIKARVDNGDYPHLSELKSAEEIELVMPKLLQDGIVEFNKETGEYTIGEDVKAEIERL”, the “soluble fraction (log2)” value was determined as 0.12. The value for “HMKDESYALGTRLLSHALGKTKLEDLAQEKIDEVVQQSGNKTLEQLLTNIGLGNALSIGIARQLT” was 0.345; that for “HMKDGAKYFQLFGLLKNEINRGIYQSGQKIPGENELAEKYGMSRQTVRQALSLLEQESLIERRQGSGTYVR” was -0.121. The figure for “HMKDGMRVYITYHDSEEEPEKPIGDGTTKGWHTNSTASVVWISQKVAESADLGIWGDPIRIKGEA” is 0.0608. The figure for “HMKDIIVDPQGQYNHPGVPTRIPSSDITMKGVGYPVLGIADNGQKQMMQPGQDYKFPGAKYVDEYPQM” is 0.185; for “HMKDIIVLGAIQAGIKKFDKIQKMTQIEPEELNSILEQLENRGFIQVAEKSGLLGKKIEILVTEKGSNEVD” it is 0.223. As for “HMKDITAVISKKKGRDYYYIIVSYHLSNGKRVQKWIKTEFSVNGNNKRKLEQKRIEILQEWQNKLV”, the “soluble fraction (log2)” value was -1.04.

As to “HMKDITMPNVYGLTLEMAEQTLKQSELSIFKAMKINSDTVEEGKVIYTDPKANSIVSGDQEITIYVSDGP”, the “soluble fraction (log2)” value stood at 0.411. The value for “HMKDKSEKTKKLIFEAAFKIIREEGFSELSANKIAQVASVSKGVIFHHFSQMDDLYLFMLDTL” was 0.23; that for “HMKDLTAIKGVGEFFAKKLSQAGYQSITNLTDVNAKRLQADTGIPLPIAARIIKEAQSLIAET” was 0.157. The value for “HMKDMWNRIRRARLSAGLSQAALAKETGVRRSAVTQWEKEGGTSPSVANLARIAVVTQVHFEWLATGRGPG” was -2.76. The figure for “HMKDNIRSILEDIPNIGPGRRRALLKHFGSIEAIRRASLEDLIKVDGMNRNAALSIMEYFGM” is -0.286. In the case of “HMKDPSLEHIDALAGKPFQAFPGQDHRAHITAHLNFMSTNMVRNNPSIMAAIQKNILEHISLMAQEQIQL”, the “soluble fraction (log2)” value was -1.42.

Consider “HMKEETYHYTVRYVTDGGDILASYEGKATKDSVFFPEVKTFDGYTAVRGEEPMFHLVSDHAVFQIVYQKNG”, for which the “soluble fraction (log2)” value was -1.17. Regarding “HMKEFEINSQWKPSLEVYDILSVKGGISRNFIEDSIPEFVLYWRGRGDKSNTWDSKFVQHVKRQWNFYSGL”, the “soluble fraction (log2)” value was -2.43. The value for “HMKEGGREEMSEIVERYGDERALMANITSVQNLMNNMKWTLDQALDALGIKGKERTLITQQLQ” was -0.0628; that for “HMKEIATKSELTYFIQRLLDLLEETNFFNPEERKKAMINHIEAIFRRNNLTLQELNMLHGIITSITR” was -2.45. The figure for “HMKEIGGGPASKFIYYLIKTKHPIEQGDLIGITHLPRRTVQSAIEDLKNQGFIIERNSLDDSRRKVYYPVK” is -0.943. The value for “HMKEIKRLVELSPGRYFIEGATNIRVFGINGSLLLDTKGETVDLSDLAKGVYLLKTDGVTYKVL” was -0.506; that for “HMKEIYIDRGKEALEKELRKRKIPFQEFLSKENTNLLFDTLKIPSHDLEELYLEIGNGKHAASTVVNTVY” was 0.391.
